Measurements taken from article doi:10.1101/2022.12.14.520423.

Molecular target: T1, CLAMP (CLAMPmel) (Drosophila melanogaster, UniProt Q9V9N4 1-561)
T1 sequence: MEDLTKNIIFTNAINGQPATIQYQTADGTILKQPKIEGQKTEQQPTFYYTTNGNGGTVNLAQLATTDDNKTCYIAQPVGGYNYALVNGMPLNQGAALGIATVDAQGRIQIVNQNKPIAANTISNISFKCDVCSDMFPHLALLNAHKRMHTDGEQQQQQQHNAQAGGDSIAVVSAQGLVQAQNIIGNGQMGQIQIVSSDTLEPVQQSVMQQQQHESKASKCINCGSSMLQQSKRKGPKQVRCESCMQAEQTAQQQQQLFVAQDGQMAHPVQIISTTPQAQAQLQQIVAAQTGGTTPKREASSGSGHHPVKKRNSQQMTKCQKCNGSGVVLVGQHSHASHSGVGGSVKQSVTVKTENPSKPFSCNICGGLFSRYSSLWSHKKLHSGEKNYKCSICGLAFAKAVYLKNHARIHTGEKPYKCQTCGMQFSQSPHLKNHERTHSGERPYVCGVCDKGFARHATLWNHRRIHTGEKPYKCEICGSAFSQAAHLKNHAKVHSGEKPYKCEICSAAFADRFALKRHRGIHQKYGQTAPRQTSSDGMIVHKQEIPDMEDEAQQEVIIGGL
Assay: EMSA

B1: Dvir 2 (dsDNA)
DNA 1: TACCAAAAACTCAAAAAGACGAGCGAGTGAAAACATATTTCCATCTCGCTCACATACTAC
DNA 2: GTAGTATGTGAGCGAGATGGAAATATGTTTTCACTCGCTCGTCTTTTTGAGTTTTTGGTA
B1: binds.
